In general, Kd refers to a measure of binding affinity in units of concentration. High values mean weaker binding, low ones tighter binding.

For data set [1], the target named is T1, MBP-hnRNP A1 (mouse, UniProt P49312 1-320). Put plainly: EMSA. Background: In EMSA bound probe runs differently from free probe, usually more slowly.
Data set [2] deals with T1, MBP-hnRNP A1. As to the kind of experiment: fluorescence polarization. In general terms: Fluorescence polarisation rises when a labelled molecule tumbles more slowly, as on binding a larger partner.
In data set [3] the target is T1, MBP-hnRNP A1. Put plainly: FP/EMSA.

T1 sequence (P49312 whole entry): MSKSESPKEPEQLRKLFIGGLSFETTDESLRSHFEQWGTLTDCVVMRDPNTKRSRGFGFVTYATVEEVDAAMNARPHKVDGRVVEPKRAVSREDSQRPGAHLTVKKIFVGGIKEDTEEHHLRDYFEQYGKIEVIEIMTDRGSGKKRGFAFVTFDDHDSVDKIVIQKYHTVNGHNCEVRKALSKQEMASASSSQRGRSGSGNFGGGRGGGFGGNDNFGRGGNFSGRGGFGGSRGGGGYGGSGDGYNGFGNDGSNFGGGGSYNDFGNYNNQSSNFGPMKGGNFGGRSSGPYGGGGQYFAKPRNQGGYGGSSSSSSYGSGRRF

For AGGUAGGUUC (ssRNA) [Mag 10 nt wt (-2 to 8)], in the data set with MBP-hnRNP A1 [1], the dissociation constant Kd is 145 ± 12 nM.
Take GGAGGUAGGUAACGG (structured_RNA) [Mag 15 nt A7A8 (A8A9 in Table 1)]: the Kd was 21 ± 4 nM with MBP-hnRNP A1 [2] and 106 ± 23 nM in the data set with MBP-hnRNP A1 [1].
The like results for GGAGGUAGGUUUCGG (structured_RNA) [Mag 15 nt U7U8 (U8U9 in Table 1)] were, in that order, 92 ± 37 nM and 171 ± 48 nM.
AGGUAAGUUC (ssRNA) [Mag 10 nt G4A]: in the data set with MBP-hnRNP A1 [1], the binding result was “no binding”.
GGAGGUAGGUGGCGG (structured_RNA) [Mag 15 nt G7G8 (G8G9 in Table 1)]: the values for the Kd with MBP-hnRNP A1 [2] and in the data set with MBP-hnRNP A1 [1] were 60 ± 18 nM and 70 ± 21 nM, respectively.
Turning to GAGCCCCAGGAGGUAGGUUCCGGGGGCCU (structured_RNA) [Mag exon 12 5'ss rat wt 29 nt (-12 to 17)], the binding result with MBP-hnRNP A1 [3] is “no binding”.

The values above are taken from PMC3683929.
